Reference: PMC9169620, “Helical self-assembly of a mucin segment suggests an evolutionary origin for von Willebrand factor tubules” (Proceedings of the National Academy of Sciences of the …, 2022)

Experiments:
[1] = molecular target: the molecule itself; assay: dynamic light scattering; MUC2 D1D2D3 at 0.3 mg/mL in 50 mM MES at varying pH, 150 mM NaCl, 37 °C; large species at pH 5.8 and below
[2] = molecular target: the molecule itself; assay: negative stain TEM; MUC2 D1D2D3 at 0.3 mg/mL in 50 mM MES (pH 5.4), 225 mM NaCl, 10 mM CaCl2, 37 °C for 24 h; diluted to 0.03 mg/mL, stained with 2% uranyl acetate

B1: MUC2 D1D2D3 (residues 21 to 1259 followed by a His6 tag) (domain or fragment, human, UniProt Q02817 21-1259, looked up)
chain: SELQTEGRTRNHGHNVCSTWGNFHYKTFDGDVFRFPGLCDYNFASDCRGSYKEFAVHLKRGPGQAEAPAGVESILLTIKDDTIYLTRHLAVLNGAVVSTPHYSPGLLIEKSDAYTKVYSRAGLTLMWNREDALMLELDTKFRNHTCGLCGDYNGLQSYSEFLSDGVLFSPLEFGNMQKINQPDVVCEDPEEEVAPASCSEHRAECERLLTAEAFADCQDLVPLEPYLRACQQDRCRCPGGDTCVCSTVAEFSRQCSHAGGRPGNWRTATLCPKTCPGNLVYLESGSPCMDTCSHLEVSSLCEEHRMDGCFCPEGTVYDDIGDSGCVPVSQCHCRLHGHLYTPGQEITNDCEQCVCNAGRWVCKDLPCPGTCALEGGSHITTFDGKTYTFHGDCYYVLAKGDHNDSYALLGELAPCGSTDKQTCLKTVVLLADKKKNVVVFKSDGSVLLNELQVNLPHVTASFSVFRPSSYHIMVSMAIGVRLQVQLAPVMQLFVTLDQASQGQVQGLCGNFNGLEGDDFKTASGLVEATGAGFANTWKAQSSCHDKLDWLDDPCSLNIESANYAEHWCSLLKKTETPFGRCHSAVDPAEYYKRCKYDTCNCQNNEDCLCAALSSYARACTAKGVMLWGWREHVCNKDVGSCPNSQVFLYNLTTCQQTCRSLSEADSHCLEGFAPVDGCGCPDHTFLDEKGRCVPLAKCSCYHRGLYLEAGDVVVRQEERCVCRDGRLHCRQIRLIGQSCTAPKIHMDCSNLTALATSKPRALSCQTLAAGYYHTECVSGCVCPDGLMDDGRGGCVVEKECPCVHNNDLYSSGAKIKVDCNTCTCKRGRWVCTQAVCHGTCSIYGSGHYITFDGKYYDFDGHCSYVAVQDYCGQNSSLGSFSIITENVPCGTTGVTCSKAIKIFMGRTELKLEDKHRVVIQRDEGHHVAYTTREVGQYLVVESSTGIIVIWDKRTTVFIKLAPSYKGTVCGLCGNFDHRSNNDFTTRDHMVVSSELDFGNSWKEAPTCPDVSTNPEPCSLNPHRRSWAEKQCSILKSSVFSICHSKVDPKPFYEACVHDSCSCDTGGDCECFCSAVASYAQECTKEGACVFWRTPDLCPIFCDYYNPPHECEWHYEPCGNRSFETCRTINGIHSNISVSYLEGCYPRCPKDRPIYEEDLKKCVTADKCGCYVEDTHYPPGASVPTEETCKSCVCTNSSQVVCRPEEGKILNQTQDGAFCYWEICGPNGTVEKHFNICSIT
notes: Mucin-2 (MUC2), human intestinal gel-forming mucin, amino-terminal D1D2D3 region, residues 21 to 1259, without CysD1; The dimers assemble into two-start helical tubules at acidic pH; also called D1D2D3 fragment; MUC2 amino-terminal fragment spanning the D1D2D3 region but lacking CysD1; source: HEK 293F, transient transfection, purified from culture medium (Ni-NTA); not shown: His6, C-terminal, …
B1: binds [1].

B2: MUC2 D1D2D3, with an amino-terminal His6 tag and TEV protease cleavage site and lacking a carboxy-terminal His6 (domain or fragment, human, UniProt Q02817 21-1259, looked up)
chain: B1 chain
notes: Mucin-2 (MUC2), human, D1D2D3 region; Made by restriction-free cloning from the plasmid of m1; also called D1D2D3 fragment produced with an amino-terminal His6 tag that was removed proteolytically; source: HEK 293F, transient transfection, purified from culture medium (Ni-NTA); tag removed proteolytically during purification; not shown: His6, N-terminal, cleaved
B2: binds [2].
